Measurements: US20260209386A1 (MYTHIC THERAPEUTICS, published 2026)

Columns and labels:
[1] = molecular target: T1, Human PTK7 Protein, His Tag, Acro Biosystems (human, UniProt Q13308 31-704); assay: BLI (Octet), antibody on anti-human Fc sensor, 50 nM PTK7 at pH 7.4, dissociation at pH 7.4 or 5.4; 1 = pH dependent binding relative to parent
T1 construct: Bought recombinant protein; also called CCK4; not shown: His tag
T1 sequence: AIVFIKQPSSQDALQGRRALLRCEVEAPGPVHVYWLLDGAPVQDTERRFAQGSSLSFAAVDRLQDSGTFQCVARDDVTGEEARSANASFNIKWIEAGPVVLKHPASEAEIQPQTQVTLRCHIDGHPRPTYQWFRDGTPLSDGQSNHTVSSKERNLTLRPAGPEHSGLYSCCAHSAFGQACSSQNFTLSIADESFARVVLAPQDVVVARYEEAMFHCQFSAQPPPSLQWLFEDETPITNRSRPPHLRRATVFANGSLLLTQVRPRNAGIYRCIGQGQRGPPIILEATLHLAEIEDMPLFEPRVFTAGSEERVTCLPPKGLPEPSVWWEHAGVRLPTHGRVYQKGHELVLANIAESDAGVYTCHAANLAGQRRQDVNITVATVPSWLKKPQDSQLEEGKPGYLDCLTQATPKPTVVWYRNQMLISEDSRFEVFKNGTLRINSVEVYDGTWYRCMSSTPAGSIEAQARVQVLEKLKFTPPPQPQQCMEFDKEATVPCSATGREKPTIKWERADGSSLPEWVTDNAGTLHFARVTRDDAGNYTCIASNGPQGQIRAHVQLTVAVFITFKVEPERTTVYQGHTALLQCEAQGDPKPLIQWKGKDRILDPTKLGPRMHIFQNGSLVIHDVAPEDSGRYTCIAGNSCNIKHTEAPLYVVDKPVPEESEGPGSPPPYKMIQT

[2] = molecular target: T2, Human PTK7 Protein, His Tag (Acro Biosystems) (human, UniProt Q13308 31-704); assay: BLI (Octet), antibody on anti-human Fc sensor, 50 nM PTK7; 1 = pH dependent binding
T2 construct: Bought His-tagged recombinant human PTK7; also called CCK4; Tyrosine-protein kinase-like 7
T2 sequence: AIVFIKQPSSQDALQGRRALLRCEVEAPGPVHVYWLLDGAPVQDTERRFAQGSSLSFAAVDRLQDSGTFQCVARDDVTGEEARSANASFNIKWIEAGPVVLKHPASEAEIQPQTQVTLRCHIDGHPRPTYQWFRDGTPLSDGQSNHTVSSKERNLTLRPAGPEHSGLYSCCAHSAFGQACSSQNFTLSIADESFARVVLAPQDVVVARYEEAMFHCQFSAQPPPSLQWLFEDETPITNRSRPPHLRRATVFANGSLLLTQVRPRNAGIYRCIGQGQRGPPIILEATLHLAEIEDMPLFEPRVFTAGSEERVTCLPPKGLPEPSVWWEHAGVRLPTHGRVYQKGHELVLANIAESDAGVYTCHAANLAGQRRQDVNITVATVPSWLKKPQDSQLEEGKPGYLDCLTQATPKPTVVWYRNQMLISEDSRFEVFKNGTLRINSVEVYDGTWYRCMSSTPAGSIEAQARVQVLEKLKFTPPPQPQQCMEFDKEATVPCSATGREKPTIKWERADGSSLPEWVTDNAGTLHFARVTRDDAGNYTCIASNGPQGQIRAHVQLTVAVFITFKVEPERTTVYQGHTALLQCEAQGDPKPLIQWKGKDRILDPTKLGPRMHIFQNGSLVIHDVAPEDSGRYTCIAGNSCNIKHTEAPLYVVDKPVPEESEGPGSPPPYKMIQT

B1: MYT10897 (antibody, V domains shown)
VH: EVQLVESGGGLVQPGGSLRLSCTASGFSLSNYVMNWVRQAPGKGLEWVGIIHSSGSTYYASWAKGRFTISRDTSKNTVYLQMNSLRAEDTAVYFCARGLYLWGQGTLVTVSS
VL: EIVMTQSPSTLSASVGDRVIITCQSSQSVYNNNLLAWYQQKPGKAPKLLIYYTSNLASGVPSRFSGSGSGAEFTLTISSLQPDDFATYYCQGGYNGNIYAFGQGTKLTVL
notes: MYT9345 variant, substitution at VH pos 52 (H2 03), no Ala mark
**Q.** Does B1 bind [1]?
**A.** Result: binds

B2: MYT10888 (antibody, V domains shown)
VH: EVQLVESGGGLVQPGGSLRLSCTASGFSHSNYVMNWVRQAPGKGLEWVGIIDSSGSTYYASWAKGRFTISRDTSKNTVYLQMNSLRAEDTAVYFCARGLYLWGQGTLVTVSS
VL: EIVMTQSPSTLSASVGDRVIITCQSSQSVYNNNLLAWYQQKPGKAPKLLIYYTSNLASGVPSRFSGSGSGAEFTLTISSLQPDDFATYYCQGGYNGNIYAFGQGTKLTVL
notes: MYT9345 variant, His at VH pos 29 (H1 04)
**Q.** Does B2 bind [1]?
**A.** Result: binds

B3: MYT10998 (antibody, V domains shown)
VH: EVQLVESGGGLVQPGGSLRLSCTASGFSLSSYAMGWVRQAPGKGLEWVGFINAGGNTYYANWAKGRFTISRDTSKNTVYLQMNSLRAEDTAVYFCARRYSRASGWYDLWGQGTLVTVSS
VL: EIVMTQSPSTLSASVGDRVIITCQASQSIHSYLAWYQQKPGKAPKLLIYAASTLASGVPSRFSGSGSGAEFTLTISSLQPDDFATYYCQSYSYSSGIDYGDVFGQGTKLTVL
notes: MYT9359 LC variant; captured on anti-human Fc sensor
**Q.** Does B3 bind [2]?
**A.** Result: binds

B4: MYT11026 (antibody, V domains shown)
VH: EVQLVESGGGLVQPGGSLRLSCTASGFSLSSYAMGWVRQAPGKGLEWVGFINAGGNTYYANWAKGRFTISRDTSKNTVYLQMNSLRAEDTAVYFCARRYSRASGWYDLWGQGTLVTVSS
VL: EIVMTQSPSTLSASVGDRVIITCQASQSISSYLAWYQQKPGKAPKLLIYAASTLASGVPSRFSGSGSGAEFTLTISSLQPDDFATYYCQSYSYSSGIDYGAVFGQGTKLTVL
notes: MYT9359 LC alanine variant; captured on anti-human Fc sensor
**Q.** Does B4 bind [2]?
**A.** Result: binds

B5: MYT11025 (antibody, V domains shown)
VH: EVQLVESGGGLVQPGGSLRLSCTASGFSLSSYAMGWVRQAPGKGLEWVGFINAGGNTYYANWAKGRFTISRDTSKNTVYLQMNSLRAEDTAVYFCARRYSRASGWYDLWGQGTLVTVSS
VL: EIVMTQSPSTLSASVGDRVIITCQASQSISSYLAWYQQKPGKAPKLLIYAASTLASGVPSRFSGSGSGAEFTLTISSLQPDDFATYYCQSYSYSSGIAYGDVFGQGTKLTVL
notes: as for B4
**Q.** Does B5 bind [2]?
**A.** Result: binds

B6: MYT11010 (antibody, V domains shown)
VH: EVQLVESGGGLVQPGGSLRLSCTASGFSLSSYAMGWVRQAPGKGLEWVGFINAGGNTYYANWAKGRFTISRDTSKNTVYLQMNSLRAEDTAVYFCARRYSRASGWYDLWGQGTLVTVSS
VL: EIVMTQSPSTLSASVGDRVIITCQASQSISSYLAWYQQKPGKAPKLLIYAASTLASGVPSRFSGSGSGAEFTLTISSLQPDDFATYYCHSYSYSSGIDYGDVFGQGTKLTVL
notes: as for B3
**Q.** Does B6 bind [2]?
**A.** Result: binds

B7: MYT11003 (antibody, V domains shown)
VH: EVQLVESGGGLVQPGGSLRLSCTASGFSLSSYAMGWVRQAPGKGLEWVGFINAGGNTYYANWAKGRFTISRDTSKNTVYLQMNSLRAEDTAVYFCARRYSRASGWYDLWGQGTLVTVSS
VL: EIVMTQSPSTLSASVGDRVIITCQASQSISSYLAWYQQKPGKAPKLLIYHASTLASGVPSRFSGSGSGAEFTLTISSLQPDDFATYYCQSYSYSSGIDYGDVFGQGTKLTVL
notes: as for B3
**Q.** Does B7 bind [2]?
**A.** Result: binds

B8: MYT11023 (antibody, V domains shown)
VH: EVQLVESGGGLVQPGGSLRLSCTASGFSLSSYAMGWVRQAPGKGLEWVGFINAGGNTYYANWAKGRFTISRDTSKNTVYLQMNSLRAEDTAVYFCARRYSRASGWYDLWGQGTLVTVSS
VL: EIVMTQSPSTLSASVGDRVIITCQASQSISSYLAWYQQKPGKAPKLLIYAASTLASGVPSRFSGSGSGAEFTLTISSLQPDDFATYYCQSYSYSSGIDYGDHFGQGTKLTVL
notes: as for B3
**Q.** Does B8 bind [2]?
**A.** Result: binds

B9: MYT11006 (antibody, V domains shown)
VH: EVQLVESGGGLVQPGGSLRLSCTASGFSLSSYAMGWVRQAPGKGLEWVGFINAGGNTYYANWAKGRFTISRDTSKNTVYLQMNSLRAEDTAVYFCARRYSRASGWYDLWGQGTLVTVSS
VL: EIVMTQSPSTLSASVGDRVIITCQASQSISSYLAWYQQKPGKAPKLLIYAASHLASGVPSRFSGSGSGAEFTLTISSLQPDDFATYYCQSYSYSSGIDYGDVFGQGTKLTVL
notes: as for B3
**Q.** Does B9 bind [2]?
**A.** Result: binds

B10: MYT11018 (antibody, V domains shown)
VH: EVQLVESGGGLVQPGGSLRLSCTASGFSLSSYAMGWVRQAPGKGLEWVGFINAGGNTYYANWAKGRFTISRDTSKNTVYLQMNSLRAEDTAVYFCARRYSRASGWYDLWGQGTLVTVSS
VL: EIVMTQSPSTLSASVGDRVIITCQASQSISSYLAWYQQKPGKAPKLLIYAASTLASGVPSRFSGSGSGAEFTLTISSLQPDDFATYYCQSYSYSSGHDYGDVFGQGTKLTVL
notes: as for B3
**Q.** Does B10 bind [2]?
**A.** Result: binds

B11: MYT10999 (antibody, V domains shown)
VH: EVQLVESGGGLVQPGGSLRLSCTASGFSLSSYAMGWVRQAPGKGLEWVGFINAGGNTYYANWAKGRFTISRDTSKNTVYLQMNSLRAEDTAVYFCARRYSRASGWYDLWGQGTLVTVSS
VL: EIVMTQSPSTLSASVGDRVIITCQASQSISHYLAWYQQKPGKAPKLLIYAASTLASGVPSRFSGSGSGAEFTLTISSLQPDDFATYYCQSYSYSSGIDYGDVFGQGTKLTVL
notes: as for B3
**Q.** Does B11 bind [2]?
**A.** Result: binds

B12: MYT11012 (antibody, V domains shown)
VH: EVQLVESGGGLVQPGGSLRLSCTASGFSLSSYAMGWVRQAPGKGLEWVGFINAGGNTYYANWAKGRFTISRDTSKNTVYLQMNSLRAEDTAVYFCARRYSRASGWYDLWGQGTLVTVSS
VL: EIVMTQSPSTLSASVGDRVIITCQASQSISSYLAWYQQKPGKAPKLLIYAASTLASGVPSRFSGSGSGAEFTLTISSLQPDDFATYYCQSHSYSSGIDYGDVFGQGTKLTVL
notes: as for B3
**Q.** Does B12 bind [2]?
**A.** Result: binds

B13: MYT11014 (antibody, V domains shown)
VH: EVQLVESGGGLVQPGGSLRLSCTASGFSLSSYAMGWVRQAPGKGLEWVGFINAGGNTYYANWAKGRFTISRDTSKNTVYLQMNSLRAEDTAVYFCARRYSRASGWYDLWGQGTLVTVSS
VL: EIVMTQSPSTLSASVGDRVIITCQASQSISSYLAWYQQKPGKAPKLLIYAASTLASGVPSRFSGSGSGAEFTLTISSLQPDDFATYYCQSYSHSSGIDYGDVFGQGTKLTVL
notes: as for B3
**Q.** Does B13 bind [2]?
**A.** Result: binds

B14: MYT11004 (antibody, V domains shown)
VH: EVQLVESGGGLVQPGGSLRLSCTASGFSLSSYAMGWVRQAPGKGLEWVGFINAGGNTYYANWAKGRFTISRDTSKNTVYLQMNSLRAEDTAVYFCARRYSRASGWYDLWGQGTLVTVSS
VL: EIVMTQSPSTLSASVGDRVIITCQASQSISSYLAWYQQKPGKAPKLLIYAHSTLASGVPSRFSGSGSGAEFTLTISSLQPDDFATYYCQSYSYSSGIDYGDVFGQGTKLTVL
notes: as for B3
**Q.** Does B14 bind [2]?
**A.** Result: binds

B15: MYT11013 (antibody, V domains shown)
VH: EVQLVESGGGLVQPGGSLRLSCTASGFSLSSYAMGWVRQAPGKGLEWVGFINAGGNTYYANWAKGRFTISRDTSKNTVYLQMNSLRAEDTAVYFCARRYSRASGWYDLWGQGTLVTVSS
VL: EIVMTQSPSTLSASVGDRVIITCQASQSISSYLAWYQQKPGKAPKLLIYAASTLASGVPSRFSGSGSGAEFTLTISSLQPDDFATYYCQSYHYSSGIDYGDVFGQGTKLTVL
notes: as for B3
**Q.** Does B15 bind [2]?
**A.** Result: binds

B16: MYT11001 (antibody, V domains shown)
VH: EVQLVESGGGLVQPGGSLRLSCTASGFSLSSYAMGWVRQAPGKGLEWVGFINAGGNTYYANWAKGRFTISRDTSKNTVYLQMNSLRAEDTAVYFCARRYSRASGWYDLWGQGTLVTVSS
VL: EIVMTQSPSTLSASVGDRVIITCQASQSISSYHAWYQQKPGKAPKLLIYAASTLASGVPSRFSGSGSGAEFTLTISSLQPDDFATYYCQSYSYSSGIDYGDVFGQGTKLTVL
notes: as for B3
**Q.** Does B16 bind [2]?
**A.** Result: binds

B17: MYT11000 (antibody, V domains shown)
VH: EVQLVESGGGLVQPGGSLRLSCTASGFSLSSYAMGWVRQAPGKGLEWVGFINAGGNTYYANWAKGRFTISRDTSKNTVYLQMNSLRAEDTAVYFCARRYSRASGWYDLWGQGTLVTVSS
VL: EIVMTQSPSTLSASVGDRVIITCQASQSISSHLAWYQQKPGKAPKLLIYAASTLASGVPSRFSGSGSGAEFTLTISSLQPDDFATYYCQSYSYSSGIDYGDVFGQGTKLTVL
notes: as for B3
**Q.** Does B17 bind [2]?
**A.** Result: binds

B18: MYT11021 (antibody, V domains shown)
VH: EVQLVESGGGLVQPGGSLRLSCTASGFSLSSYAMGWVRQAPGKGLEWVGFINAGGNTYYANWAKGRFTISRDTSKNTVYLQMNSLRAEDTAVYFCARRYSRASGWYDLWGQGTLVTVSS
VL: EIVMTQSPSTLSASVGDRVIITCQASQSISSYLAWYQQKPGKAPKLLIYAASTLASGVPSRFSGSGSGAEFTLTISSLQPDDFATYYCQSYSYSSGIDYHDVFGQGTKLTVL
notes: as for B3
**Q.** Does B18 bind [2]?
**A.** Result: binds
